Experimental data published in patent US20190071501A1 (REYOUNG SUZHOU BIOLOGY SCIENCE AND TECHNOLOGY, published 2019).

T1: mouse pd1 (mouse, UniProt Q02242)
T1 construct: recombinant protein coated on the ELISA plate; also called recombinant mouse PD-1
T1 sequence (receptor, looked up): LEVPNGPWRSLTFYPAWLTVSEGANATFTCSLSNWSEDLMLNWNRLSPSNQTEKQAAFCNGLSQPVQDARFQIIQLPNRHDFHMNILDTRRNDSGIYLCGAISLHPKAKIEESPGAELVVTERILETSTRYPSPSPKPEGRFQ

T2: recombinant human CTLA-4 (human, UniProt P16410 36-161, limits assumed)
T2 construct: Plate-coated at 0.5 ug/mL in Embodiment 8
T2 sequence (looked up): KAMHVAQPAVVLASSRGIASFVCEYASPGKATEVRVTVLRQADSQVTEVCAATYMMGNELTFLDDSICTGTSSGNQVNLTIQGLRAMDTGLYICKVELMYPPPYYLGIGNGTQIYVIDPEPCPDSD


Columns and labels:
PD1-Fc-His [1] = target: T3, PD1-Fc-His (UniProt Q15116 25-167, limits assumed); assay: competition ELISA: antibody pre-incubated with PD1-Fc-His, plate coated with 'PD1-Fc' (competitor (so in the source)), anti-His-HRP; humanized-section antibody; ELISA competition, PD1-Fc-His in solution
T3 construct: not shown: Fc; His tag
Procedure: (§1) Incubate the gradient diluted antibody and a certain concentration of PD1-Fc-His in advance, then add the mixture to the plate laid with PD1-Fc. Add anti-His-HRP to the plate after incubating and washing. Then perform coloration. Draw up the reaction curve by fitting of readings (see FIG. 7 for results) to calculate the IC50 value.

[2] = target: Recombinant human PD-1 fusion protein (human); assay: ELISA: recombinant human PD-1 fusion protein coated at 0.5 ug/mL, antibody kept 0 days in monkey serum at 37 C, goat anti-human FAB-HRP, OD450
mouse pd1 = target: T1, mouse pd1; assay: ELISA: protein coated at 0.5 ug/mL, antibody at 0.5 ug/mL, goat anti-human FAB-HRP, OD450
Procedure: (§2) The binding of recombinant human CD28, recombinant human CTLA-4, recombinant mouse PD-1, recombinant M.fascicularis PD-1 and recombinant human PD-1 protein in recombinant CD28 family to antibodies is tested. Different proteins are stored at 0.5 μg/mL in enveloping buffer at 4° C. overnight. Remove the solution in wells the next day and wash with PBST for twice. Then add 1% BSA, seal at 37° C. for 1 hour, then wash with PBST for twice. Add 0.5 μg/mL antibody samples, incubate for 1 hour, and wash with PBST for three times. Dilute with goat anti-human FAB-HRP at ratio of 1:10000, incubate for 1 hour at 37 C, and wash with PBST for three times. Add TMB for 15 min coloration, stop the reaction with 0.5M H2SO4 and read out the absorbance at 450 nm.

recombinant human CTLA-4 = target: T2, recombinant human CTLA-4; assay: as above
Procedure: as §2

recombinant human CD28 = target: T4, recombinant human CD28 (human, UniProt P10747 19-152, limits assumed); assay: as above
T4 construct: Plate-coated at 0.5 ug/mL in Embodiment 8
Procedure: as §2

PD1-His [3] = target: T5, PD1-His (human, UniProt Q15116 25-167, limits assumed); assay: ELISA, PD1-His coated; ELISA, PD1-His on the plate
T5 construct: also called hPD-1; not shown: His tag
Procedure: Lay PD1-His on the plate, add gradient diluted antibody, incubate and wash it, and then add goat anti-mouse-HRP, perform coloration, and draw up the reaction curve by fitting of readings (see FIG. 6 for results) to calculate the EC50 value.

[4] = target: Recombinant human PD-1 fusion protein (human); assay: ELISA: recombinant human PD-1 fusion protein coated at 0.5 ug/mL, antibody kept 4 days in monkey serum at 37 C, goat anti-human FAB-HRP, OD450
PD1-Fc-His [5] = target: T3, PD1-Fc-His; assay: Inhibition ELISA: graded antibody pre-incubated with PD1-Fc-His, added to a plate laid with 'PD1-Fc' (so in the source), anti-His-HRP, OD450
Procedure: as §1

[6] = target: T6, PD-1 antigen of the Biacore experiment (not given) (UniProt Q15116 25-167, limits assumed); assay: SPR (Biacore), antibody captured by goat anti-human IgG on CM5 chip
T6 construct: Embodiment 5 describes capture by goat anti-human IgG on the chip but never names the analyte
Source text: Biacore is used to analyze the affinity and binding kinetics of the antibody expressed in cell line 4. Using standard amine coupling chemistry and the kit provided by Biacore, the goat anti-human IgG is covalently linked to CMS chip by primary amine. Make the antibody flow in the HBS EP buffer at a flow rate of […] and measure the binding. The binding time is 300 seconds, and the dissociation time is 7200 seconds.

[7] = target: Recombinant human PD-1 fusion protein (human); assay: ELISA: recombinant human PD-1 fusion protein coated at 0.5 ug/mL, antibody kept 1 day in monkey serum at 37 C, goat anti-human FAB-HRP, OD450
[8] = target: T7, PD1 on PD1-27 cells (PD1 over-expressed CHO-K1 stable transfected cells) (UniProt Q15116 25-288); assay: direct cell binding on PD1-27 CHO-K1 cells, EU fluorescence (heading 'Cell binding activity'; value printed as 'cell inhibitory activity IC50'); direct cell binding on PD1-27 cells, no competitor
T7 construct: whole, on cells
Source text: (§3) Lay PD1-27 (PD1 over-expressed CHO-K1 stable transfected cells) on the cell plate for culture inspection one day ahead of schedule. After closure on the next day, add gradient-diluted antibody, then anti-mouse-EU after washing, then fluorescence enhancement solution after washing, and obtain the readings.

[9] = target: Recombinant human PD-1 fusion protein (human); assay: ELISA: recombinant human PD-1 fusion protein coated at 0.5 ug/mL, antibody kept 7 days in monkey serum at 37 C, goat anti-human FAB-HRP, OD450
PD1-His [10] = target: T5, PD1-His; assay: ELISA, PD1-His coated, goat anti-mouse-HRP
Procedure: Envelop PD1-His on the plate, add gradient diluted antibody, incubate and wash it, and then add goat anti-mouse-HRP, perform coloration, and draw up the reaction curve by fitting of readings (see FIG. 1 for results) to calculate the EC50 value.

[11] = target: T7, PD1 on PD1-27 cells (PD1 over-expressed …); assay: cell competition on PD1-27 CHO-K1 cells against 'PD1-Fc' (competitor (so in the source)), anti-Human-EU; mouse antibody; cell competition on PD1-27 CHO-K1 cells
Source text: Lay PD1-27 (PD1 over-expressed CHO-K1 stable transfected cells) on the cell plate for culture inspection one day ahead of schedule. After closure on the next day, add gradient-diluted antibody and PD1-Fc, then anti-Human-EU after washing, and then fluorescence enhancement solution after washing.

PD1-Fc-His [12] = target: T3, PD1-Fc-His; assay: Inhibition ELISA: graded antibody pre-incubated with PD1-Fc-His, added to a plate coated with 'PD1-Fc' (so in the source), anti-His-HRP, OD450
Procedure: as §1, with “enveloped” for “laid”, “2” for “7”

PD1-Fc-His [13] = target: T3, PD1-Fc-His; assay: competition ELISA: antibody pre-incubated with PD1-Fc-His, plate coated with 'PD1-Fc' (competitor (so in the source)), anti-His-HRP; mouse antibody; ELISA competition, PD1-Fc-His in solution
Procedure: as §1, with “enveloped” for “laid”, “2” for “7”

[14] = target: T7, PD1 on PD1-27 cells (PD1 over-expressed …); assay: cell binding on PD1-27 CHO-K1 cells, anti-mouse-EU fluorescence
Source text: as §3

Chain of Recombinant human PD-1 fusion protein (human) (Q15116 25-170): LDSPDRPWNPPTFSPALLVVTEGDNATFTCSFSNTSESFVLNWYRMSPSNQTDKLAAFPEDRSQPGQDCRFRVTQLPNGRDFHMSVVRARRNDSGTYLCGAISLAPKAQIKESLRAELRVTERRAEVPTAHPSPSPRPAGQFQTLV
T3 sequence (Q15116 25-167 limits assumed): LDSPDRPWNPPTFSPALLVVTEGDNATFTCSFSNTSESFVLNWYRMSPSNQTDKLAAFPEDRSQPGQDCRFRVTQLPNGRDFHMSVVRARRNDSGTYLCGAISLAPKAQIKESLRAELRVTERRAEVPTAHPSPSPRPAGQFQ
T6 sequence (Q15116 25-167 limits assumed): as above
T7 sequence (Q15116 25-288 limits assumed): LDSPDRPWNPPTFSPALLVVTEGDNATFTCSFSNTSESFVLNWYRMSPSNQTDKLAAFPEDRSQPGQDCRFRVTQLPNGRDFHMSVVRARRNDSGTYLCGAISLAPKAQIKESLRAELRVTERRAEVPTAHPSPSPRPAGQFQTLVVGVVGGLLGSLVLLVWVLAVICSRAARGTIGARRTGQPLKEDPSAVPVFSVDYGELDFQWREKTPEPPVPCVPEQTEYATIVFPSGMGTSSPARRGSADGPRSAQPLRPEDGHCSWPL
T5 sequence (Q15116 25-167 limits assumed): as the sequence (Q15116 25-167 limits assumed) above
T4 sequence (P10747 19-152 limits assumed): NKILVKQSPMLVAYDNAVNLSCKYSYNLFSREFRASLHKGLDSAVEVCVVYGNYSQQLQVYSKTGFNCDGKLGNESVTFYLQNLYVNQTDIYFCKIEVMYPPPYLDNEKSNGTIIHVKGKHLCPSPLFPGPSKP

IC50 (PD1-Fc-His [1]) | EC50 (read off the curve) [2] | binding result (mouse pd1) | binding result (recombinant human CTLA-4) | binding result (recombinant human CD28) | EC50 (PD1-His [3]) | EC50 (read off the curve) [4] | IC50 (read off the curve) (PD1-Fc-His [5]) | Kd [6] | koff [6] | kon [6] | EC50 (read off the curve) [7] | EC50 [8] | EC50 (read off the curve) [9] | EC50 (PD1-His [10]) | IC50 [11] | IC50 (read off the curve) (PD1-Fc-His [12]) | IC50 (PD1-Fc-His [13]) | EC50 [14] | Binder
406 nM | 0.04 µg/mL | no binding (tested: 0.5 ug/mL) | no binding (tested: 0.5 ug/mL) | no binding (tested: 0.5 ug/mL) | 0.00609 µg/mL | 0.04 µg/mL | ~0.4 µg/mL | 0.422 nM | 1.93e-05 s⁻¹ | 45700 M⁻¹ s⁻¹ | 0.04 µg/mL | 0.103 µg/mL | 0.04 µg/mL | – | – | – | – | – | humanized antibody anti-PD-1 (antibody, V domains shown, Human constant regions; also called humanized PD-1 antibody; hup01 (plasmids P3.1GS-hup01-HC / P3.1GS-hup01-LC)) VH: EVQLVESGGGLVKPGGSLRLSCAASGFTFSSYTMSWVRQAPGKGLEWVATISNGGSFTYYPDSMKGRFTISRDNSKNTLYLQMSSLRAEDTAVYYCARDSDYYGIFDYWGQGTTVTVSS VL: DIVMTQSPLSLPVTPGEPASISCRSSKSLLYKDGKTYLNWYLQKPGQSPQLLIYLMSTRASGVPDRFSGSGSGTDFTLKISRVEAEDVGVYYCQQLVEDPFTFGQGTKLEIKR
– | – | – | – | – | – | – | – | – | – | – | – | – | – | 0.0024 µg/mL | 0.284 µg/mL | ~0.004 µg/mL | 3.83 nM | 0.0878 µg/mL | mouse anti-PD-1 (antibody, V domains shown, also called mouse anti-PD-1 monoclonal antibody; mouse PD-1 antibody) VH: DVKLVESGGGLVKPGGSLKLSCAASGFTFSSYTMSWVRQTPEKRLEWVATISNGGSFTYYPDSMKGRFTISRDNAKNTLYLQMSSLKSEDTAMYYCTRDSDYYGIFDYWGQGTTLTVSS VL: DIVITQDELSNPVTSGESVSISCRSSKSLLYKDGKTYLNWFLQRPGQSPQLLIYLMSTRASGVSDRFSGSGSGTDFTLEISRVKAEDVGVYYCQQLVEDPFTFGSGTKLEIKR
